Source: patent US6991794B1, “Progenitor cell preservation factors and methods for and products of their use” (ImClone Systems Incorporated, priority 1997, dated 2006)

What was measured:
[1] = biological target: FLT3-transfected 3T3 cells (murine FLT3 extracellular portion/human Fms chimera and/or full-length human FLT3; not told apart); assay: cell-based or functional assay
[2] = in vivo; cited from earlier work
FLT3 receptor = type: cell-based; conditions: murine chimeric or full length human receptor
Text: A specific and quantitative biological assay using NIH 3T3 fibroblasts transfected either with a chimeric receptor having the extracellular portion of the murine FLT3 receptor combined with the intracellular portion of the human Fms receptor (Dosil et al., Mol. Cell. Biol. 13(10):6572-6585 1993) or with the full length human receptor (Small et al., Proc. Natl. Acad. Sci. USA 91:459-463, 1994) can be used to evaluate lectin biological activity during purification. Serial two-fold dilutions of lectin samples across rows of a 96 well plate allowed for greater than a thousand-fold range to access FLT3 3T3 biological activity.
Specifically, 3T3 cells cultured in tissue culture plates (Becton Dickinson Labware, Lincoln Park, N.J.) were removed from the plates by washing cells twice in Hank's buffered saline solution (HBSS; Gibco Laboratories, Grand Island, N.Y.). […] Proliferation and cell survival was quantitated by addition of XTT (2, 3-bis[Methoxy-4-nitro-5sulfophenyl]-2H-tetrazolium-5 carboxanilide inner salt) (Diagnostic Chemicals Ltd, Charlottetown, Prince Edward Island, Canada), which is a tetraformazan salt cleaved by actively respiring cells (Roehm et al., J. Immunol. Methods 142: 257-265, 1991). […] One unit of biological activity was defined as the reciprocal dilution at which half-maximal stimulation of cells is detected.

[3] = test system: CB CD34+ progenitor cells; assay: ex vivo culture of CB CD34+ cells: total cell numbers and CFU assay; type: cell-based, human
Procedure: Human umbilical cord blood (CB) samples were obtained from full term deliveries. The blood samples were diluted 1:1 in phosphate-buffered-saline (PBS) without Mg^+2/Ca^+2, supplemented with 10% fetal bovine serum (FBS). Low density mononuclear cells were collected after standard separation on Ficoll-Paque (Pharmacia Biotech, Uppsala, Sweden), and washed in RPMI with 10% FBS. Some samples were frozen in 10% DMSO, while the others were used fresh. Enrichment of CD34^+ cells was performed with mini MACS separation kit (Miltenyi Biotec, Bergisch Gladbach, Germany) according to the manufacturer's instructions. The purity of the enriched CD34^+ cells was 60-80% using one column. […]
Ex vivo Cultures Human CD34^+ enriched cells were cultured in 24 well plates (2-4×10^5 cells in 0.5 mL), containing RPMI supplemented with 10% FBS+1% BSA. […] After 3, 6, 10 and 13 days, the cells were collected, counted, analyzed by FACS, seeded in to semisolid cultures and transplanted into NOD-SCID mice.
Semisolid cultures were performed in order to detect the levels of human progenitors in ex vivo cultures, and in the marrow of transplanted mice. […] The cultures were incubated at 37° C. in a humidified atmosphere containing 5% CO2 and scored 14 days later with an inverted microscope for myeloid, erythroid, and mixed colonies by morphologic criteria. […]

[4] = test system: human cord blood progenitors; assay: cord blood mononuclear cell liquid culture followed by methylcellulose colony assay; type: cell-based; conditions: for Blast colonies / Erythroid colonies / Mix colonies / Myeloid colonies: 40 ng/ml, ± SD of triplicate
Procedure: To do this, umbilical cord blood from healthy donors was collected in 100 units/ml of heparin. Cord blood mononuclear cells (CB mnc) were isolated within 4 hours of collection by separation using the density separation medium sold under the trademark of FICOLL-PAQUE® (Pharmacia Biotech, Piscataway, N.J.) following manufacturer's instruction and washed in X-VIVO 10 medium (BioWhittaker, Walkersville, Md.). CB mnc were then cultured in six well tissue culture plates (Corning Inc., Corning, N.Y.) at a concentration of 200,000 cells/mL in a volume of 4 mL of X-VIVO 10 (i.e., 800,000 cells total per well). Dl-FRIL and/or recombinant E. coli Flt3-L (recFL; BioSource International, Camarillo, Calif.) were added at a concentration of 40 ng/ml at the outset (with no addition as a control). Cultures were incubated in humidified chambers without medium changes for up to 29 days.
After incubation, the cultured CB mnc cells were harvested by washing in X-VIVO 10 (i.e., harvested cells were pelleted and resuspended in X-VIVO 10) to remove the Dl-FRIL and/or recFL, and then determining viable cell number by trypan blue (Sigma) exclusion.
The progenitor capacity of the blast-like colonies was examined further for cells initially cultured for 3 weeks in either Dl-FRIL, recFL, no addition, or Dl-FRIL+recFL, and then without these regulators for an additional 6 weeks in a methylcellulose colony assay. […] Viable cells were harvested from the cells initially cultured in Dl-FRIL alone and replated in an colony assay (in methylcellulose colony assay medium) for an additional 4 weeks.

CB CD34+ cells = assay: cell cycle analysis of CD34+ cells (propidium iodide); conditions: CD34+ cells cultured 3 days; mean ± SE
Procedure: Cells were analyzed for their DNA content by staining with propidium iodide (Sigma). The cells were cultured in ex vivo cultures as described, for 3, 6, 10, and 13 days as indicated. At each time point, the cells were collected, resuspended to a final concentration of 0.1-1×10^6 cells/mL, and incubated with 0.1% Triton X 100 (Sigma) for 20 minutes on ice. 50 mg/mL propidium iodide (PI) were added before analysis. Flow cytometeric analyses were performed using FACSort (Becton Dickinson, San Jose, Calif.).
The cell cycle status of CB CD34^+ cells was analyzed in 5 indepenent experiments with cells cultured for 3-13 days with either Dl-FRIL or a cytokine combination (SCF, Flt3-L, G-CSF, IL-3, IL-6) (Bhatia et al., J. Exp. Med. 186:619-624, 1997; Conneally et al., Proc. Natl. Acad. Sci. USA 94:9836-9841, 1997).

[5] = test system: Flt3-expressing 3T3 cells; assay: Flt3 3T3 assay during purification of Pv-FRIL; type: cell-based; conditions: by itself at <1 ng/mL
Procedure: To create factor-dependence for receptor-transfected 3T3 cells, growth conditions were compromised to permit only ligands to rescue cells from death. To do this, 3T3 cell lines were assayed in 96 well plates (Becton Dickinson Labware, Lincoln Park, N.J.) containing 3,000 cells in 100 μL of serum-free medium consisting of 10% AIMV (Life Technologies) and 90% DMEM. In each experiment, samples were serially diluted two-fold across rows starting at a 1:10 dilution. Viable cells were quantitated after 3-5 days by XTT (2,3-bis[Methoxy-4-nitro-5sulfophenyl]-2H-tetrazolium-5 carboxanilide inner salt) (Sigma, St. Louis, Mo.) (Roehm et al., supra). Relative activity (units/ml) and specific activity (units/mg) are defined as the reciprocal dilution at which half-maximal stimulation of cells was detected.
Each batch of PHA-LCM was generated in serum-free medium with cells from individual normal donors. To start purification, the PHA-LCM with Flt3 3T3 activity was pooled in 30 liter lots with approximately 10^7 Flt3 3T3 units. Twenty-five liters of PHA-LCM was diafiltered into 50 mM Tris-HCl, pH 7.6, 50 mM NaCl and then concentrated to 2-2.5 liters by tangential flow ultrafiltration on a 10 kDa molecular weight cutoff membrane (Pellicon, Millipore, Bedford, Mass.). A Blue-sepharose FF (Pharmacia Biotech) column (10 cm×15 cm) was equilibrated with 50 mM Tris-HCl, pH 7.4,50 mM NaCl. […]

Pv-FRIL (native, from Phaseolus vulgaris red kidney bean extract / purified from PHA-LCM)
Specific Activity (u/mg) in the Flt3 3T3 assay, Superdex 75 step [1]: 244000 units/mg

B1: peanut agglutinin (PNA): dietary lectin from raw peanuts (protein, UniProt P02872 24-273, looked up)
Galactose-binding lectin: AETVSFNFNSFSEGNPAINFQGDVTVLSNGNIQLTNLNKVNSVGRVLYAMPVRIWSSATGNVASFLTSFSFEMKDIKDYDPADGIIFFIAPEDTQIPAGSIGGGTLGVSDTKGAGHFVGVEFDTYSNSEYNDPPTDHVGIDVNSVDSVKTVPWNSVSGAVVKVTVIYDSSTKTLSVAVTNDNGDITTIAQVVDLKAKLPERVKFGFSASGSLGGRQIHLIRSWSFTSTLITTTRRSIDNNEKKIMNMASA
level in the blood [2]: 1000 to 5000 ng/mL

B2: recFL: recombinant E. coli Flt3-L (FLT3 ligand) (protein, UniProt P49771 27-235, looked up)
Fms-related tyrosine kinase 3 …: TQDCSFQHSPISSDFAVKIRELSDYLLQDYPVTVASNLQDEELCGGLWRLVLAQRWMERLKTVAGSKMQGLLERVNTEIHFVTKCAFQPPPSCLRFVQTNISRLLQETSEQLVALKPWITRQNFSRCLELQCQPDSSTLPPPWSPRPLEATAPTAPQPPLLLLLLLPVGLLLLAAAWCLHWQRTRRRTPRPGEQVPPVPSPQDLLLVEH
rescue of FLT3-transfected 3T3 cells from death (FLT3 receptor): rescue FLT3-transfected cells from death
increase in number of total cells ([3]; 10 days of suspension culture, FIG. 34A): 4.5 fold
percentage of CFU-GEMM ([3]; first factor 6 days, then cytokines): 18.2%
colonies after 21 days culture and 6 weeks methylcellulose colony assay [4]: No colonies were detected
fewer mature colonies than with FRIL or FRIL plus recFL ([4]; cells cultured 15 days): 24 fold
Blast colonies ([4]; day 15 of culture): 0
Erythroid colonies ([4]; day 15 of culture): 0
Mix colonies ([4]; day 15 of culture): 0
Myeloid colonies ([4]; day 15 of culture): 40 ± 69
Blast colonies ([4]; day 21 of culture): 0
Erythroid colonies ([4]; day 21 of culture): 0
Mix colonies ([4]; day 21 of culture): 0
Myeloid colonies ([4]; day 21 of culture): 0
Blast colonies ([4]; day 29 of culture): 0
Erythroid colonies ([4]; day 29 of culture): 0
Mix colonies ([4]; day 29 of culture): 0
Myeloid colonies ([4]; day 29 of culture): 0
G0/G1 (CB CD34+ cells): 68.4 ± 2.1 percentage
SG2M (CB CD34+ cells): 22.2 ± 5.4 percentage
Sub G0/G1 (CB CD34+ cells): 9.4 ± 3.3 percentage

B3: recombinant hIL1-α: exogenous recombinant human interleukin 1-α (protein, UniProt P01583 113-271, looked up)
Interleukin-1 alpha: SAPFSFLSNVKYNFMRIIKYEFILNDALNQSIIRANDQYLTAAALHNLDEAVKFDMGAYKSSKDDAKITVILRISKTQLYVTAQDEDQPVLLKEMPEIPKTITGSETNLLFFWETHGTKNYFTSVAHPNLFIATKQDYWVCLAGGPPSITDFQILENQA
stimulatory activity on Flt3 3T3 cells [5]: no stimulatory activity
